This is an account of results in PMC6181354, “Domain architecture of BAF250a reveals the ARID and ARM-repeat domains with implication in function and assembly of the BAF remodeling complex”.

One data set concerns the target BAF250a ARID V1067G (UniProt O14497 968-1143, V1067G). Nature of the data set: ITC; 25 C; dH -0.69 kcal/mol; n 1.04; ITC: 50 mM NaH2PO4 pH 6, 0.025 mM EDTA, 25 C; 20 uM DNA in cell titrated with 200 uM protein. The following applies: protein: recombinant; tags: N-terminal 6xHis (pET28a); blunt; self-complementary palindrome, 2 copies; snap cooled on ice after heating.

The next data set addresses BAF250a ARID WT (UniProt O14497 968-1143). Nature of the data set: ITC; 25 C; dH 1.51 kcal/mol; n 1.03; ITC: 50 mM NaH2PO4 pH 6, 0.025 mM EDTA, 25 C; 20 uM DNA in cell titrated with 200 uM protein. The following applies: protein: recombinant; tags: N-terminal 6xHis (pET28a); blunt; self-complementary palindrome, 2 copies; snap cooled on ice after heating.

Sequence of BAF250a ARID WT (O14497 968-1143): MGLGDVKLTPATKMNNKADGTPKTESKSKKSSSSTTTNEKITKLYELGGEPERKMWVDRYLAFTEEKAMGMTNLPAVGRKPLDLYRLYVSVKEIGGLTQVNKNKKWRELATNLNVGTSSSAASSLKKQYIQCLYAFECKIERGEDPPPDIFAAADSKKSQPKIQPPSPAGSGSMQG
Sequence of BAF250a ARID V1067G (O14497 968-1143 V1067G): as the sequence (O14497 968-1143) above, with V100G counted along it

B1: DD12 dsDNA (Dickerson dodecamer) (dsDNA)
DNA 1: CGCGAATTCGCG
DNA 2: CGCGAATTCGCG
Consider B1, for which the figures for the equilibrium dissociation constant (Kd) with BAF250a ARID V1067G and with BAF250a ARID WT were 694 ± 331 nM and 71.9 ± 37.7 nM, respectively.
